Results from US20120094909A1 (Bristol-Myers Squibb, published 2012).
Several values for one entry are separate records, joined by “and”; a condition that tells them apart may be missing. Equal entries are not always repeated. Where two headings read alike, the source gives them in different places.

Legend:
[1] = biological target: T1, human PCSK9 (proprotein convertase subtilisin kexin type 9) (human, UniProt Q8NBP7 31-692); assay: BLI Octet Red, 37 C
T1 construct: Directly immobilized (SPR ProteOn), biotinylated (BLI), or in solution, depending on the assay; also called hPCSK9
Experimental: (§1) Tips were then immersed into a buffer-only well for observation of Adnectin dissociation. Experiments were performed in a temperature controlled environment at either 25 or 37° C., and the oscillation speed was set at 1500 rpm.
(§2) Binding interaction analysis was performed using proprietary software from Fortebio (Fortebio Data Analysis Software version 6.3.0.36). Global fits were performed for all samples, using a 1:1 binding model. The nature of these global fits constrained all values of concentration to a single pair of association and dissociation rates that were themselves constrained to each other. Affinities (KD), association and dissociation rates were averaged over the various loading levels used in the analysis.

[2] = biological target: T1, human PCSK9 (proprotein convertase …); assay: FRET, competitor ATI001125
Text: (§3) Table 11 summarizes the overall data from these three FRET assays.

[3] = biological target: T1, human PCSK9 (proprotein convertase …); assay: FRET direct binding, anti-his6 antibody
Text: as §3

cynomolgus monkey PCSK9 = cynomolgus monkey PCSK9 (cynomolgus monkey, UniProt A0A7N9D9N8 150-747); assay: FRET, competitor EGFA peptide
Text: as §3

[4] = biological target: T1, human PCSK9 (proprotein convertase …); assay: FRET, competitor EGFA peptide
Text: as §3

[5] = biological target: T1, human PCSK9 (proprotein convertase …); assay: BLI, biotinylated hPCSK9 on sensor tips
Experimental: as §1, §2

[6] = biological target: T2, human PCSK9 (proprotein convertase subtilisin kexin type 9) (human, UniProt Q8NBP7 31-692); assay: PCSK9:EGFA FRET, competitor EGFA peptide
T2 construct: immobilized directly (ProteOn), biotinylated (Octet) or in solution, according to the assay; also called hPCSK9; PCSK9-AF647 (labelled form)

[7] = biological target: T2, human PCSK9 (proprotein convertase …); assay: SPR (ProteOn), 25 C
[8] = biological target: T2, human PCSK9 (proprotein convertase …); assay: cell-based or functional assay
[9] = biological target: T1, human PCSK9 (proprotein convertase …); assay: FRET, competitor ATI000972
Text: as §3

[10] = biological target: T1, human PCSK9 (proprotein convertase …); assay: cell-based or functional assay; remark: listed apart in the source
[11] = biological target: T1, human PCSK9 (proprotein convertase …); assay: SPR ProteOn, 25 C
Experimental: (§4) The binding characteristics were characterized by Surface Plasmon Resonance (SPR). […] This allowed kinetic determination in the absence of regeneration. […] Evaluation of the kinetic parameters was performed using the Langmuir interaction model and constant parameter fitting with the ProteOn Manager software.

[12] = biological target: T1, human PCSK9 (proprotein convertase …); assay: SPR ProteOn, PCSK9 immobilized, 25 C
Experimental: as §4

[13] = biological target: T2, human PCSK9 (proprotein convertase …); assay: cell-based or functional assay; remark: listed apart in the source

| Binder | Kd [1] [nM] | IC50 [2] [nM] | EC50 [3] [nM] | EC50 (cynomolgus monkey PCSK9) [nM] | EC50 [4] [nM] | IC50 [4] [nM] | Kd [5] [nM] | koff [5] [s⁻¹] | kon [5] | further results |
| --- | --- | --- | --- | --- | --- | --- | --- | --- | --- | --- |
| 2451C06 (designed binder, Anti-PCSK9 Adnectin, His6-tagged) MGVSDVPRDLEVVAATPTSLLISWDAPAGAASYGYYRITYGETGGNSPVQEFTVPVSKGTATISGLKPGVDYTITVYAVEFPFPGAGYYHRPISINYRTEIDKPSQHHHHHH | 1.27 | 0.4 | 5.5 | 24.7 | 1.2 | 1.2 | 1.27 | 0.000435 | 347000 M⁻¹ s⁻¹ | – |
| 1922G04 (designed binder, also called ATI001057; ATI-1057) MGVSDVPRDLEVVAATPTSLLISWRPPSHAYGYYRITYGETGGNSPVQEFTVPIGKGTATISGLKPGVDYTITVYAVEYPWKGSGYYHRPISINYRTEIDKPSQHHHHHH | – | – | – | – | – | – | – | – | – | EC50 [6]: 1.2 nM; Kd [7]: 0.09 nM; LDLR Depletion (% inhibition at 75 nM) [8]: 105%; LDLR Depletion EC50 [8]: 10 nM |
| 1923B02 (designed binder) MGVSDVPRDLEVVAATPTSLLISWTPPPKGYGYYRITYGETGGNSPVQEFTVPVGEGTATISGLKPGVDYTITVYAVEYTYNGAGYYHRPISINYRTEIDKPSQHHHHHH | – | – | – | – | – | – | – | – | – | EC50 [6]: 2.3 nM; Kd [7]: 0.173 nM; LDLR Depletion (% inhibition at 75 nM) [8]: 178%; LDLR Depletion EC50 [8]: 23 nM |
| 1459D05 (designed binder, also called ATI000891; ATI-891) MGVSDVPRDLEVVAATPTSLLISWPPPSHGYGYYRITYGETGGNSPVQEFTVPPGKGTATISGLKPGVDYTITVYAVEYPYKHSGYYHRPISINYRTEIDKPSQHHHHHH | 14.4 | – | 3.9 | > 1000 | 5.8 | 4 | – | – | 149000 M⁻¹ s⁻¹ and 108000 M⁻¹ s⁻¹ | IC50 [9]: 14 nM; Kd [11]: 1.58 nM; IC50 (cynomolgus monkey PCSK9): 2300 nM; Kd [12]: 1.58 nM; koff [12]: 0.00018 s⁻¹; kon [12]: 113000 M⁻¹ s⁻¹; LDLR Depletion EC50 [10]: > 200 nM |
| 2011H05 (designed binder, also called ATI001091) MGVSDVPRDLEVVAATPTSLLISWVPSSHAYGYYRITYGETGGNSPVQEFTVPVGVGTATISGLKPGVDYTITVYAVEYAFEGAGYYHRPISINYRTEIDKPSQHHHHHH | – | – | – | – | – | – | – | – | – | EC50 (nM), PCSK9-induced LDLR depletion from HepG2 cell surface [13]: 8.85 nM; percentage of PCSK9 inhibition at 75 nM [13]: 177%; EC50 [6]: 2.7 nM; Kd [7]: 0.08 nM; LDLR Depletion (% inhibition at 75 nM) [8]: 198%; LDLR Depletion EC50 [8]: 12 nM |
| 2381G09 (designed binder, Anti-PCSK9 Adnectin, His6-tagged) MGVSDVPRDLEVVAATPTSLLISWDAPAGDGYGYYRITYGETGGNSPVQEFTVPVSKGTATISGLKPGVDYTITVYAVEFTFPGAGYYHRPISINYRTEIDKPSQHHHHHH | 1.12 | 1.1 | 4.5 | 25.2 | 3.1 | 3.1 | 1.12 | 0.000291 | 271000 M⁻¹ s⁻¹ | – |
| 2381H09 (designed binder, Anti-PCSK9 Adnectin, His6-tagged) MGVSDVPRDLEVVAATPTSLLISWDAPAGGGYGYYRITYGETGGNSPVQEFTVPVSKGTATISGLKPGVDYTITVYAVEFDFVGAGYYHRPISINYRTEIDKPSQHHHHHH | 3.23 | 0.5 | 4.1 | 20.2 | 3.4 | 3.4 | 3.23 | 0.00046 | 136000 M⁻¹ s⁻¹ | – |

Continued by falling EC50 [3], values first:

| Kd [1] [nM] | IC50 [2] [nM] | EC50 [3] [nM] | EC50 (cynomolgus monkey PCSK9) [nM] | EC50 [4] [nM] | IC50 [4] [nM] | Kd [5] [nM] | koff [5] [s⁻¹] | kon [5] | Binder | further results |
| --- | --- | --- | --- | --- | --- | --- | --- | --- | --- | --- |
| 4.54 | 0.9 | 3.8 | 14.6 | 2.4 | 2.4 | 4.54 | 0.00109 | 244000 M⁻¹ s⁻¹ | 2382F05 (designed binder, Anti-PCSK9 Adnectin, His6-tagged) MGVSDVPRDLEVVAATPTSLLISWDAPAEAGKHYGYYRITYGETGGNSPVQEFTVPVSKGTATISGLKPGVDYTITVYAVEFDFPGAGYYHRPISINYRTEIDKPSQHHHHHH | – |
| 0.604 | 0.4 | 3.8 | 12.6 | 2.8 | 2.8 | 0.604 | 0.00025 | 436000 M⁻¹ s⁻¹ | 2382E05 (designed binder, Anti-PCSK9 Adnectin, His6-tagged) MGVSDVPRDLEVVAATPTSLLISWDAPAEGGYGYYRITYGETGGNSPVQEFTVPVSKGTATISGLKPGVDYTITVYAVEFDFPGAGYYHRPISINYRTEIDKPSQHHHHHH | – |
| 0.677 | 0.3 | 3.8 | 19.8 | 3.4 | 3.4 | 0.677 | 0.000557 | 471000 M⁻¹ s⁻¹ | 2382H03 (designed binder, Anti-PCSK9 Adnectin, His6-tagged) MGVSDVPRDLEVVAATPTSLLISWDAPAEGAYGYYRITYGETGGNSPVQEFTVPVSKGTATISGLKPGVDYTITVYAVEYPYPFAGYYHRPISINYRTEIDKPSQHHHHHH | – |
| 2.94 | 0.5 | 3.7 | 10.8 | 2.4 | 2.4 | 2.94 | 0.000596 | 220000 M⁻¹ s⁻¹ | 2382E03 (designed binder, Anti-PCSK9 Adnectin, His6-tagged) MGVSDVPRDLEVVAATPTSLLISWDAPAGDGYGYYRITYGETGGNSPVQEFTVPVSKGTATISGLKPGVDYTITVYAVEFDFPGAGYYHRPISINYRTEIDKPSQHHHHHH | – |
| 1.11 | 0.5 | 3.6 | 20.1 | 2.9 | 2.9 | 1.11 | 0.000464 | 419000 M⁻¹ s⁻¹ | 2382G04 (designed binder, Anti-PCSK9 Adnectin, His6-tagged) MGVSDVPRDLEVVAATPTSLLISWDAPAGGGYGYYRITYGETGGNSPVQEFTVPSSKGTATISGLKPGVDYTITVYAVEFDFPGAGYYHRPISINYRTEIDKPSQHHHHHH | – |
| 2.49 | 0.9 | 3.4 | 27.2 | 4 | 4 | 2.49 | 0.000879 | 368000 M⁻¹ s⁻¹ | 2382C05 (designed binder, Anti-PCSK9 Adnectin, His6-tagged) MGVSDVPRDLEVVAATPTSLLISWDAPADGAYGYYRITYGETGGNSPVQEFTVPVSKGTATISGLKPGVDYTITVYAVEYSFPGAGYYHRPISINYRTEIDKPSQHHHHHH | – |
| 1.53 | 0.6 | 3.3 | 11.8 | 3.3 | 3.3 | 1.53 | 0.000663 | 354000 M⁻¹ s⁻¹ | 2382D03 (designed binder, Anti-PCSK9 Adnectin, His6-tagged) MGVSDVPRDLEVVAATPTSLLISWDAPADEAYGYYRITYGETGGNSPVQEFTVPVSKGTATISGLKPGVDYTITVYAVEFDFPGAGYYHRPISINYRTEIDKPSQHHHHHH | – |
| – | – | 3.2 | 53.5 | 2.3 | 2.3 | – | – | – | 1923B02 (designed binder, Anti-PCSK9 Adnectin, His6-tagged) MGVSDVPRDLEVVAATPTSLLISWTPPPKGYGYYRITYGETGGNSPVQEFTVPVGEGTATISGLKPGVDYTITVYAVEYTYNGAGYYHRPISINYRTEIDKPSQHHHHHH | IC50 [9]: 3.2 nM; Kd [11]: 0.17 nM; LDLR Depletion EC50 [10]: 23 nM |
| – | – | 2.3 | 118 | 2.7 | 1.3 | – | – | – | 1813E02 (designed binder, Anti-PCSK9 Adnectin, His6-tagged) MGVSDVPRDLEVVAATPTSLLISWSPPANGYGYYRITYGETGGNSPVQEFTVPVGRGTATISGLKPGVDYTITVYAVEYTYKGSGYYHRPISINYRTEIDKPSQHHHHHH | IC50 [9]: 2.4 nM; IC50 (cynomolgus monkey PCSK9): 118 nM; LDLR Depletion EC50 [10]: 16 nM |
| – | – | 1.6 | 106 | 2.01 | 2 | – | – | – | 1784F03 (designed binder, Anti-PCSK9 Adnectin, His6-tagged) MGVSDVPRDLEVVAATPTSLLISWRPPIHAYGYYRITYGETGGNSPVQEFTVPIVEGTATISGLKPGVDYTITVYAVEYTFKHSGYYHRPISINYRTEIDKPSQHHHHHH | IC50 [9]: 1.9 nM; IC50 (cynomolgus monkey PCSK9): 106 nM; LDLR Depletion EC50 [10]: 26 nM |
